{"source": "the DeepSol protein solubility set"}
{"assay": "soluble on expression in E. coli; label from the status in PepcDB or PDB records"}
{"sequence": "MATMDEKPLYGLERTVFRQLLHLFSRYADVIEKVILFGSRARGDYKEGSDIDLAIKFRKPGGPLYLLQSDLDELPIIYPIDVVDYNQIHNEQLKMNIDQEGKTIFQTNEHGKVMVTMSRLMDRFYDFERALSKLRQSAARDAQTDDLVVDATIQRFEFTYELAWKWMKLYLEHQGYAEVTSPRKTIREAFREGLIQDGETWLRMLEDRNRTSHTYDEETAMDIYERIRIHYIPLFDRLLDEMKQRLDSAT", "soluble on expression in E. coli": "not soluble"}
{"sequence": "MKSNPAIQAAIDLTAGAAGGTACVLTGQPFDTMKVKMQTFPDLYRGLTDCCLKTYSQVGFRGFYKGTSPALIANIAENSVLFMCYGFCQQVVRKVAGLDKQAKLSDLQNAAAGSFASAFAALVLCPTELVKCRLQTMYEMETSGKIAKSQNTVWSVIKSILRKDGPLGFYHGLSSTLLREVPGYFFFFGGYELSRSFFASGRSKDELGPVPLMLSGGVGGICLWLAVYPVDCIKSRIQVLSMSGKQAGFIRTFLNVVKNEGITALYSGLKPTMIRAFPANGALFLAYEYSRKLMMNQLEAY", "soluble on expression in E. coli": "soluble"}
{"sequence": "MSLKITQIQAQNKNKNRRNVFVDGSYEFSCDMEIILKYKLKEGLEIDRTKLLQVIDQSKEEFAFRLALNYLSFKSRTSFEIYTYLLKKEYEEKIIEKVIEKLKYYRYVDDNQYVLNYIKTALAEGKKGKDRVQSDLINKKIPQDMIESHMHLFSCETNLEIAKELSNKYFKQNAHLPFNQFKNKLSQFLMRKGFNWEIINTCLNILEQDSEVQSHIDSNKELYVKEAIKLGNKYFVKYKAKETNPYLVEHKVKSHLYQKGYDKDTINLAFKKIIENSEGHHHHHH", "soluble on expression in E. coli": "not soluble"}
{"sequence": "MGSDKIHHHHHHMDQEQLDALANAALEELARRNYGDFFYLSHGKQWDLLRHQKYITDRLQKIIDGEQKYYIIEIPPQHGKSTVITETFPAYYLMRHPDSLVMVVSYSKELFQKFGRKNREKFRLFSDQLFGLQISSETSSVSEWGVEGHLGSLYSTSILGGATGRGARLLIIDDPIKNRAEAESKTIRDKIYNEWQDTFYSRLTADASVIVIMTRWHEDDLAGRLLKEQTLPWEEIKIPAIAEDDDLLGRKPGEALAPEIGKDEEWAAKTKAVTGSRGWAALYQQRPTPAGGNIFKRSWIKFYVPTLSKKIELSLGDDVVILPRLFDRQAQSWDCTFKDTETSDYVSGQVWGKKRADFYLLDRHHERMGIVETMKAIDAMAAKWPKARGIYIEDKANGTAVIEMLKNELSGIIAVNPEGGKEVRANAVAPIWEAGNVYLPHPLVCPWVDDFINELVAFPNAEHDDDVDSMTQILNKMIGKVSLRERYLDN", "soluble on expression in E. coli": "not soluble"}
{"sequence": "SSLPLNAIEPCVICQGRPKNGCIVHGKTGHLMACFTCAKKLKKRNKPCPVCRQPIQMIVLTYFP", "soluble on expression in E. coli": "soluble"}
{"sequence": "MSLRHSGAPLSPRNVCPMKTIAPCMAAMMLLSGCNGVPTSYVSDPVYSQAFVVTSGAPLPMLLMASAIQWNEDYAVTAKHTPFLRNVVHEGLGDVVFFKHKASSVPHWRQYVPGEAVTAVGFNSFMMPMQGKGHALSSLVRLEGTPGSVFYSVHDGPITKGMSGGPVFADDGKVVGINVAIIPTDEINAGKRPDLVGKDRISVFMSFSEIDKEWRRYQYLLAHKAKPKAPAAVKGYVAVAAKEGHHHHHH", "soluble on expression in E. coli": "not soluble"}
{"sequence": "MNEEVVMKFLHTSDWHVGRTLNGWSLLEEQEWAFQQIVDLAISEKVDGVIISGDLYDRAVPPVDAIKLFNKTLARLVLEEQIPVYAISGNHDGAERLHFGRDFFQHQGLHLSTRLEEAFEPIELENCQIFLLPFIDPIDARIYYKDDEGKEIQGIGDALTYILEDMEKAFDPDKAHVLVTHFAVSKKDDSDGQGLRELMLSETSNTVGGLTNVTSDLFKSFDYVALGHIHTRFASPTKRVQYSGSPVAFNVKEAKRKEEKGVYILELDASGDMSQTFHT", "soluble on expression in E. coli": "not soluble"}
{"sequence": "MSKIAIIVDSSSYIPKDQLKKHHIYVIDNPIIFGETIYHEFNWPVNADFYQQMATTPIQPTTSQPAPGDFEAAFQAAKDDGYKQALVITLSSGFSGTFLNTSAIASSHSDIDIHVWDSRIACLGAGNQALLAAYLAEKGIGIDEILSKLQILRSRTGVFFVVDSISHLQRTGRLSGGQALVAGLLNIKPILNINTNKQGKIDAVAKTRKMSGAWRYIEKHFAKIADNYQRAGWPMRVSILDADNPELADAWLKRAEKRWPEIIFERGIIGPLVGVHIGGKAVGLIWAEDYKRLED", "soluble on expression in E. coli": "not soluble"}
{"sequence": "MGSDKIHHHHHHMSFKKVDLSRYQFDGAQASSIGDLTQLDAADKQRLLYAGIDVNQQNLAGSFMHMNHSGVHCTSRQEGLEILDIKQALDTYHGLPDYFWKLVDRNKDEYTRAADEHLHGGYFIRARAGAKIEAPVQSCLFIKGNGVGQNVHNVVVVEEGAEMHIITGCATAHDTRSVAHLGISEFYVHKGGKLTFTMIHNWGEEAAVRPRSAGYLEEDAVFLSNYVLLKPVTDLQMYPTITLGGRGSVARFNSVIVAPTGSYVDTGNRILLEAPDTRGEIIARTMTTGGTIINRGHIAGHAVPARGHLECKGLILGGGVIHAIPELEGTQDGVELSHEAAVGKIAQEEIEYLMARGLDEDEATSTIVRGFLNVDIMGLPEELEKAVEEQINQLDAGDAM", "soluble on expression in E. coli": "not soluble"}
{"sequence": "MPKIRIKLRGFDHKTLDASAQKIVEAARRSGAQVSGPIPLPTRVRRFTVIRGPFKHKDSREHFELRTHNRLVDIINPNRKTIEQLMTLDLPTGVEIEIKTVGGGR", "soluble on expression in E. coli": "soluble"}
{"sequence": "MGSDKIHHHHHHMPLLDIRNLTIELDTPHGRVKALERVSLTLNPGEVHGLVGESGSGRTLLAKAILGIPGHNWTIQADRMMWDGQNLMDMSPSERRVLMGSEMAMIFQDPISSLDPAIAVGTQIIEAMPENKELPWWKRGSDKRKKAQQWLHKVGIKETQKIMSSYAWELSDGECQKVMIAIAVANQPRLLIADEPTNSMEVRTQAQIFRLLSKLNQLQNVSILLISHELETLSQWCDRLTVMYSGQVMESGVTSDVIANPYHPYTKALLDNIPDYSNPEHHKTMMQTLPGSAPALQHLPIGCRLGPRCPQAQKLCVNQPSLCHQKDRYFACHFPYHNEPCHEEPLTKS", "soluble on expression in E. coli": "not soluble"}
{"sequence": "QSSKSPLTAALGLDISGTPIITDLQKMPHGLIAGATGSGKSVCINSLLVSLLYKATPDQLKLLLIDPKMVELAPYNRIPHLVSPVITDAKAATVALKWAVEEMERRYQLFSHTGVRNMEKYNEYASHPDHTGEKLPYILIVIDELADLMMVAPNDVEESISRIAQKARACGIHMIVATQRPSV", "soluble on expression in E. coli": "not soluble"}
{"sequence": "GPGSMYSYNNIIEKNEPCKKDVIENLQLSLSPTGAVRQFRVDERVDVVVVEGFLSNDECDQLIAACEKVGYTFWRQKDPNAEGEEAGCCGEAEARAFRVVDTIEANFPTLSQVLSSRIEKVVKLDPKTFSPSMEGAEELFARDLEGTWVPQQLAQNLLFARYGAGGHFSPHIDGSTIVDINTRSLYTLLIYLNDCEAGGETVLFDGEQAEVLKRDAESGKYIGRRENRIGAVKPTKGTAAFFYYDVLHEGSPVGEGHSKYIIRGDFLYRRNPPILTAENDMKAFELYEKARVAESNGDVFAACEMFQRVRKLSKGVAELYQL", "soluble on expression in E. coli": "soluble"}
{"sequence": "MAHHHHHHMERYESIAERAGFARSQVLPRGSGGSSSASVCYENAANYLQHARGADYATASCSVPVDIWDALCQGEASVLRVGQLGEGRQRLIAYESCTTSSHSGDLSSRLASLEKSLDKLLSEFPKTAEELVTLDYNASLCSAAARSVLTAVPSFLSISGLLRTINNKLCSLDGFSREVLPLMRCDDDVSRQCLLVAGRLDTLEEKLRTTEALVAALGHTSAASNAIFERIGARYGETTRAATM", "soluble on expression in E. coli": "not soluble"}
{"sequence": "MLNLSGLSLSCEYQPFVCPHTKHIHGYEALARFYLGQGQAIAPNLVFEQLHENSNALAAVEFQAKTFQLKHAPARQSLFVNVDPHAANGVHTQKLLDLLSSHPQLTVEIIENTCISDAELANQLFHQFKTANLNVALDDIGAPHSMLSVDLMMNVDYLKFDRHWLNLVAEPHGIALLSALIEFGKRTGKQCILEGIETEAQLQLARELNVDLVQGFLFKPWFIRPEQSERLIC", "soluble on expression in E. coli": "soluble"}
{"sequence": "MMSGAVEPVSVIFPQSTSSGVEVLYQQFSFGRYFNQIAAGVITGLIQAHQHSGHGPLRILEVGGGTGGTTAWLLPELRNVADVRYCFTDISALFSRRAEDKFSEYDFVEYAQFDLQKPASEQGFQAGHYDLIVAANVIHATQHVGQTLHNLRPLLKPGGALLMREITRPMRLFDFVFGPLVLPLHDEQARGGELFLSTAHWQQQCLESGFERLDWLP", "soluble on expression in E. coli": "not soluble"}
